± gives the standard deviation.

Here are results for 53 sequences from the supplement of paper PMC10567573.

This series in a line: protein stability index of a GFP-peptide fusion (GPS, HEK-293T) (PSI 1-6); higher = more stable. The conditions noted are these: c terminus: a fixed tail appended.
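Further: 24-mer peptide tiles fused after GFP, lentivirally expressed, FACS-sorted into six equal bins by GFP/DsRed ratio, decoded by Illumina sequencing, PSI is the read-weighted mean bin number.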

Take VAAACACGFTVAQIITSLVFHLPF [OR10K2]: the protein stability index is, setting by setting: (treatment: DMSO) 3.43 ± 0.54; (treatment: MLN4924 1 uM, 8 h) 3.42 ± 0.68.

In the case of VAALREEQKVLSRLVESLSTQIRA [RASAL3], the protein stability index (treatment: DMSO) turned out to be 2.34 ± 0.35 and the protein stability index (treatment: MLN4924 1 uM, 8 h) is 2.38 ± 0.11.

Take VAGMPTAYDLSSVIASGSSVGHNN [CARM1]: the protein stability index is, setting by setting: (treatment: DMSO) 3.86 ± 0.19; (treatment: MLN4924 1 uM, 8 h) 3.86 ± 0.23.

For VAREYYSEADASHCIQQILESVNH [CAMK2D], the protein stability index worked out at 3.46 ± 0.17 (treatment: DMSO) and 3.37 ± 0.3 (treatment: MLN4924 1 uM, 8 h).

As for VASNSELVQSSRSEVTELRRVLQG [KRT16], the protein stability index (treatment: DMSO) turned out to be 4.33 ± 0.36 and the protein stability index (treatment: MLN4924 1 uM, 8 h) stood at 4.47 ± 0.27.

Regarding VAYRSLGRFEQLGKTAASWCLHVN [FSD1], the protein stability index by setting is: (treatment: DMSO) 2.6 ± 0.6; (treatment: MLN4924 1 uM, 8 h) 2.2 ± 0.36.

Regarding VCSSNKPAIVEAGGMQALGLHLTD [CTNNB1], the protein stability index stood at 4.04 ± 0.087 (treatment: DMSO) and 3.89 ± 0.16 (treatment: MLN4924 1 uM, 8 h).

In the case of VDDAYVRRMAAEATEWQKAGAPPP [SRPK2], the protein stability index runs as follows: (treatment: DMSO) 4.52 ± 0.26; (treatment: MLN4924 1 uM, 8 h) 4.63 ± 0.16.

On to VDEVSVSLRLWDTFGDHHKDRRFA [RHOBTB1], for which the protein stability index runs as follows: (treatment: DMSO) 3.01 ± 0.1; (treatment: MLN4924 1 uM, 8 h) 3.08 ± 0.2.

In the case of VEINDLDPEVFKEMMRFIYTGRAP [SPOPL], the protein stability index was 2.36 ± 0.33 (treatment: DMSO) and 2.05 ± 0.28 (treatment: MLN4924 1 uM, 8 h).

Regarding VELGKQKKKYMPYNHQHKYFFLIG [FADS1], the protein stability index was 2.29 ± 0.94 (treatment: DMSO) and 3.12 ± 0.48 (treatment: MLN4924 1 uM, 8 h).

VELLLARKISVNAKDEDQWTALHF [RIPK4] gave a protein stability index (treatment: DMSO) of 2.91 ± 0.82 and a protein stability index (treatment: MLN4924 1 uM, 8 h) of 1.83 ± 0.4.

VELLPPAPKGKGRKPAAGAQSAGT [BRD3] yielded a protein stability index (treatment: DMSO) of 4.58 ± 0.3 and a protein stability index (treatment: MLN4924 1 uM, 8 h) of 4.87 ± 0.42.

As for VELPMNSSNGNDNGNGKNGGLEHV [BNIP3L], the protein stability index stood at 5.25 ± 0.17 (treatment: DMSO) and 5.23 ± 0.22 (treatment: MLN4924 1 uM, 8 h).

As for VEPETRAVIRWMHSFNFVLSANLH [CPN1], the protein stability index stood at 3.1 ± 0.12 (treatment: DMSO) and 3.19 ± 0.27 (treatment: MLN4924 1 uM, 8 h).

VEVGDKTHWAVGVCRDSVSRKGEL [TRIM39]: the protein stability index by setting is: (treatment: DMSO) 3.06 ± 0.15; (treatment: MLN4924 1 uM, 8 h) 3.2 ± 0.17.

Regarding VHRGDGANPFQAYLDVDLTLTREQ [RTN2], the protein stability index was found to be 3.88 ± 0.088 (treatment: DMSO) and 3.82 ± 0.25 (treatment: MLN4924 1 uM, 8 h).

VIGALLRFNQAILVSRHDPASRRR [LPCAT4]: the protein stability index by setting is: (treatment: DMSO) 2.28 ± 0.22; (treatment: MLN4924 1 uM, 8 h) 2.36 ± 0.19.

With VKMALDIEIATYRKLLEGEESRIS [PRPH], the protein stability index runs as follows: (treatment: DMSO) 2.61 ± 0.13; (treatment: MLN4924 1 uM, 8 h) 2.7 ± 0.39.

As for VKNVVSGGFPIIRDQIFRYVHDPE [FBXO3], the protein stability index runs as follows: (treatment: DMSO) 2.53 ± 0.31; (treatment: MLN4924 1 uM, 8 h) 2.63 ± 0.38.

VKVPTTLAEYCVKTKAPAPDEGSD [CDC34]: the protein stability index runs as follows: (treatment: DMSO) 5.07 ± 0.43; (treatment: MLN4924 1 uM, 8 h) 4.97 ± 0.12.

As to VLDILTEQREWVLKSSILIAMAVY [INTS3], the protein stability index turned out to be 2.57 ± 0.33 (treatment: DMSO) and 2.48 ± 0.61 (treatment: MLN4924 1 uM, 8 h).

VLKAHNEYRQKHGVPPLKLCKNLN [GLIPR2]: the protein stability index (treatment: DMSO) worked out at 2.92 ± 0.17 and the protein stability index (treatment: MLN4924 1 uM, 8 h) was 3.33 ± 0.18.

As for VLQSVRELSRSRKLYGQRERVWAL [FCHSD1], the protein stability index came out at 2.06 ± 0.24 (treatment: DMSO) and 2.37 ± 0.25 (treatment: MLN4924 1 uM, 8 h).

For VMRMLGQTPTKEELDAIIEEVDED [TNNC2], the protein stability index (treatment: DMSO) came out at 5.41 ± 0.28 and the protein stability index (treatment: MLN4924 1 uM, 8 h) is 5.34 ± 0.27.

For VNMYVSIVFFGLISFDRYYKIVKP [P2RY14], the protein stability index is, setting by setting: (treatment: DMSO) 3.66 ± 0.41; (treatment: MLN4924 1 uM, 8 h) 3.06 ± 0.28.

Regarding VPLWGQLLLFLVFVIVLFFIYHFM [EMD], the protein stability index by setting is: (treatment: DMSO) 2.41 ± 0.17; (treatment: MLN4924 1 uM, 8 h) 2.17 ± 0.47.

Sequence VQFSHHVFLNLHTLKFYCLPDNYE [USP39] had a protein stability index (treatment: DMSO) of 2.89 ± 0.61 and a protein stability index (treatment: MLN4924 1 uM, 8 h) of 3.04 ± 0.74.

Consider VQKDKYPEEFSLLKLQTKDGHRPE [SPATS1], for which the protein stability index came out at 4.64 ± 0.23 (treatment: DMSO) and 5 ± 0.33 (treatment: MLN4924 1 uM, 8 h).

Sequence VQLAQQQAALQKQQEVVVAGSSLP [ACBD3] came in with a protein stability index (treatment: DMSO) of 4.12 ± 0.11 and a protein stability index (treatment: MLN4924 1 uM, 8 h) of 4.49 ± 0.26.

Regarding VQWKEPEEPNGQIQGYRVYYTMDP [PTPRD], the protein stability index reads like this: (treatment: DMSO) 3.3 ± 0.16; (treatment: MLN4924 1 uM, 8 h) 3.17 ± 0.23.

Turning to VRELRIAFREFDRDRDGRITVAEL [CABP4], the protein stability index runs as follows: (treatment: DMSO) 2.7 ± 0.49; (treatment: MLN4924 1 uM, 8 h) 2.98 ± 0.17.

Turning to VRKANRIKECLSKGTFSDVTFKLD [RHOBTB1], the protein stability index amounted to 3.33 ± 0.21 (treatment: DMSO) and 3.43 ± 0.19 (treatment: MLN4924 1 uM, 8 h).

Consider VSEFLKVAEQVGIDKGDIPDLTQA [SNAP91], for which the protein stability index by setting is: (treatment: DMSO) 4.18 ± 0.45; (treatment: MLN4924 1 uM, 8 h) 4.13 ± 0.44.

The sequence VSGDTSKLMKILQPQDVDLALDSG [RIPK4] had a protein stability index (treatment: DMSO) of 4.57 ± 0.16 and a protein stability index (treatment: MLN4924 1 uM, 8 h) of 4.68 ± 0.32.

Turning to VSNFLKERTGFSIRPVAGYLSPRD [TPH1], the protein stability index runs as follows: (treatment: DMSO) 2.71 ± 0.33; (treatment: MLN4924 1 uM, 8 h) 2.95 ± 0.31.

On to VSNMSGPSGEEEAKVGPGLPDGCQ [CBY2], for which the protein stability index by setting is: (treatment: DMSO) 5.46 ± 0.12; (treatment: MLN4924 1 uM, 8 h) 5.16 ± 0.16.

Consider VTKSPEKRSSLPRPSSILPPRRGV [MAP2], for which the protein stability index turned out to be 4.58 ± 0.16 (treatment: DMSO) and 4.72 ± 0.19 (treatment: MLN4924 1 uM, 8 h).

For the sequence VTLRRGLRSRASRCRPRSLIDYKS [FAM189A2], the protein stability index runs as follows: (treatment: DMSO) 2.12 ± 0.33; (treatment: MLN4924 1 uM, 8 h) 2.23 ± 0.39.

Take VTNPHSSQWKDPALSQLICFCRES [GADD45A]: the protein stability index runs as follows: (treatment: DMSO) 2.5 ± 0.24; (treatment: MLN4924 1 uM, 8 h) 2.67 ± 0.33.

Take VVKLLVSHGANVNHTTVTNSTPLR [FEM1B]: the protein stability index by setting is: (treatment: DMSO) 2.25 ± 0.26; (treatment: MLN4924 1 uM, 8 h) 2.29 ± 0.27.

For the sequence VVPGDHLLEPEVADGGGAPPQGGC [KCNA3], the protein stability index (treatment: DMSO) was found to be 5.37 ± 0.14 and the protein stability index (treatment: MLN4924 1 uM, 8 h) was determined as 5.29 ± 0.12.

Regarding VWFGGREHVLMFAKLALYPCASLL [TMEM175], the protein stability index came to 2.77 ± 0.26 (treatment: DMSO) and 3.18 ± 0.27 (treatment: MLN4924 1 uM, 8 h).

With VWSCEGCKAFFKRSIQGHNDYICP [ESR2], the protein stability index was determined as 2.32 ± 0.16 (treatment: DMSO) and 2.15 ± 0.11 (treatment: MLN4924 1 uM, 8 h).

Regarding VWVLMDEDVRIFFYQSPYDSEQVP [NCF4], the protein stability index came to 2.3 ± 0.71 (treatment: DMSO) and 2.33 ± 0.64 (treatment: MLN4924 1 uM, 8 h).

On to VYTNLSSYSPASASSGGAGAAVGT [JUNB], for which the protein stability index turned out to be 3.26 ± 0.29 (treatment: DMSO) and 3.49 ± 0.27 (treatment: MLN4924 1 uM, 8 h).

For WEISDDYPSLQAMGWFNNEVGSMK [CRYBA1], the protein stability index (treatment: DMSO) came to 3.19 ± 0.24 and the protein stability index (treatment: MLN4924 1 uM, 8 h) came to 3.42 ± 0.38.

WEQKVLVIVMTTRFEEGGRRKCGQ [PTPN9]: the protein stability index runs as follows: (treatment: DMSO) 2.28 ± 0.2; (treatment: MLN4924 1 uM, 8 h) 2.28 ± 0.34.

Regarding WETIRSFKDEWTQLDMFYRNWALK [AASDHPPT], the protein stability index runs as follows: (treatment: DMSO) 2.14 ± 0.13; (treatment: MLN4924 1 uM, 8 h) 2.08 ± 0.32.

Consider WKNTKKMGVGKASASDGSSFVVAR [GLIPR2], for which the protein stability index by setting is: (treatment: DMSO) 3.64 ± 0.27; (treatment: MLN4924 1 uM, 8 h) 3.71 ± 0.3.

Consider WKYILLGLADVEANYVIVRAYQYT [SLC35F2], for which the protein stability index is, setting by setting: (treatment: DMSO) 2.77 ± 0.66; (treatment: MLN4924 1 uM, 8 h) 2.86 ± 0.26.

Turning to WLDPGHTAVAQAPPAVASSSLFDL [SERTAD1], the protein stability index is 3.33 ± 0.27 (treatment: DMSO) and 3.38 ± 0.097 (treatment: MLN4924 1 uM, 8 h).

In the case of WRFVLQRLVFLAAFVVYLETETLV [TSN], the protein stability index reads like this: (treatment: DMSO) 2.68 ± 0.54; (treatment: MLN4924 1 uM, 8 h) 3.66 ± 0.17.
